# Source: US9074002B2, “PTP1B inhibitors” (Cold Spring Harbor Laboratory, priority 2009, dated 2015)
# Entries after “also recorded” stand apart in the source; their conditions may differ.
# T1: endogenous PTP1B-OX (Homo sapiens, UniProt P18031)
# T1 construct: endogenous in cells; host or cells: 293T cells (transfected only with the scFv intrabody)
# T1 sequence (P18031 1-435): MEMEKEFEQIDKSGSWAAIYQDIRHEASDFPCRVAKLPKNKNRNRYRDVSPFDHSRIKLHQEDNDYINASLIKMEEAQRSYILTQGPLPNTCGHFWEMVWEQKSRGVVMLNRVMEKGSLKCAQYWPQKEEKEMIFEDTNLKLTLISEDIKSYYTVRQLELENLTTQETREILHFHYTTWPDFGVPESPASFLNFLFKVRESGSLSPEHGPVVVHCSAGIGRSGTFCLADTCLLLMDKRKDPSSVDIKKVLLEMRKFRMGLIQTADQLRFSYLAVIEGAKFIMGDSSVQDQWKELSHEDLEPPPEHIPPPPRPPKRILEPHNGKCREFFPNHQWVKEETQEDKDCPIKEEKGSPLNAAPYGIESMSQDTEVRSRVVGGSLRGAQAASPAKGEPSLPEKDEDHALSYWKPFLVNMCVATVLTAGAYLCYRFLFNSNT
# B1: scFv45: conformation-sensor scFv binding PTP1B-OX, SEQ ID NO: 26 and 78; expressed as intrabody (protein)
# scFv: MKKTAIAIAVALAGFATVAQAALTQPSSVSANPGGTVKITCSGSSSAYGYGWYQQKSPGSAPVTVIYNNNKRPSNIPSRFSGSKSGSTGTLTITGVQAEDEAVYFCGSEDSSTDAIFGAGTTLTVLGQSSRSSTVTLDESGGGLQAPGGALSLVCKASGFTFSSYDMGWIRQAPGKGLEYVAGITDNGRYASYGSAVDGRATISRDNGQSSVRLQLNNLRAEDTGTYYCARDDGSGWTGNSIDAWGHGTEVIVSSTSGQAGQHHHHHHGAYPYDVPDYAS
# B2: scFv57: scFv binding PTP1B-OX, SEQ ID NO: 27 and 90 (protein)
# scFv: MKKTAIAIAVALAGFATVAQAALTQPSSVSANPGAFNKITCSGSSSAYGYGWNQQKSPGSAPVTVIYNNNKRPSNIPSRFSGSKSGSTGTLTITGDQDEDEDFYFCGSEYSSTDAIFGAGTTLTVLGQSSRSSTVTLDESGGGLQAPGGALSLVCKASGFTFSSYDMGWIPQAPGKGLEYVAGITDNGIYASYGSAVDGRATISRDNRQSSVKLQLNNLKADDTGTYYCARDDGSGWTGNSIDAWGHGTEVIVSSTSGQAGQHHHHHHGAYPYDVPDYAS
# Molecular target: T1, endogenous PTP1B-OX
# Assay: Intrabody interaction in 293T cells treated with H2O2 (Ni-NTA pull down / anti-PTP1B immunoprecipitation)
# Format: cell-based
# Conditions: 1 mM H2O2 5 minutes, FIGS. 11, 12
# Method in brief: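 293T cells transiently expressing HA-detected scFv intrabodies, serum-starved 16 h, then 1 mM H2O2 for 5 min or 20 mM NAC for 1 h at 37 °C (NAC lysates with 2 mM TCEP). Complexes from 1 mg lysate captured by Ni-NTA pull-down or anti-PTP1B (FG6) IP; PTP1B and intrabody detected by immunoblot.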
row,Molecule,binding of intrabody to endogenous PTP1B-OX
1,B1,interaction between scFv45 and PTP1B-OX was observed; also recorded: co-pulldown of PTP1B-OX in the presence of H2O2
2,B2,bound to endogenous PTP1B-OX strongly
